According to paper PMC11574045, “A cofactor-induced repressive type of transcription factor condensation can be induced by synthetic peptides to suppress tumorigenesis” (The EMBO Journal, 2024):

Tested on: HEK293FT cells transfected with TF library
Assay: Screening of TF condensates based on fluorescent puncta
Format: cell-based
Settings: Figure 1B numerical data; TF library screen, one value per transcriptional factor
In short: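 Cells were seeded onto plasmid/PEI-loaded wells (plasmid 1.6 μg/ml final) and grown 60 h. Medium with or without glucose followed for 12 h. Fixed, permeabilized cells were stained against Flag or GAL4 tags, and condensate puncta were quantified from 50 random fields per well.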

Molecule | Z score of condensed fraction
ZNF41 (protein, UniProt P51814 1-821, looked up) Zinc finger protein 41: MAANGDSPPWSPALAAEGRGSSCEVRRERTPEARIHSVKRYPDLSPGPKGRSSADHAALNSIVSLQASVSFEDVTVDFSKEEWQHLDPAQRRLYWDVTLENYSHLLSVGYQIPKSEAAFKLEQGEGPWMLEGEAPHQSCSGEAIGKMQQQGIPGGIFFHCERFDQPIGEDSLCSILEELWQDNDQLEQRQENQNNLLSHVKVLIKERGYEHKNIEKIIHVTTKLVPSIKRLHNCDTILKHTLNSHNHNRNSATKNLGKIFGNGNNFPHSPSSTKNENAKTGANSCEHDHYEKHLSHKQAPTHHQKIHPEEKLYVCTECVMGFTQKSHLFEHQRIHAGEKSRECDKSNKVFPQKPQVDVHPSVYTGEKPYLCTQCGKVFTLKSNLITHQKIHTGQKPYKCSECGKAFFQRSDLFRHLRIHTGEKPYECSECGKGFSQNSDLSIHQKTHTGEKHYECNECGKAFTRKSALRMHQRIHTGEKPYVCADCGKAFIQKSHFNTHQRIHTGEKPYECSDCGKSFTKKSQLHVHQRIHTGEKPYICTECGKVFTHRTNLTTHQKTHTGEKPYMCAECGKAFTDQSNLIKHQKTHTGEKPYKCNGCGKAFIWKSRLKIHQKSHIGERHYECKDCGKAFIQKSTLSVHQRIHTGEKPYVCPECGKAFIQKSHFIAHHRIHTGEKPYECSDCGKCFTKKSQLRVHQKIHTGEKPNICAECGKAFTDRSNLITHQKIHTREKPYECGDCGKTFTWKSRLNIHQKSHTGERHYECSKCGKAFIQKATLSMHQIIHTGKKPYACTECQKAFTDRSNLIKHQKMHSGEKRYKASD | -0.7537
CCNC (protein, UniProt P24863 1-283, looked up) Cyclin-C: MAGNFWQSSHYLQWILDKQDLLKERQKDLKFLSEEEYWKLQIFFTNVIQALGEHLKLRQQVIATATVYFKRFYARYSLKSIDPVLMAPTCVFLASKVEEFGVVSNTRLIAAATSVLKTRFSYAFPKEFPYRMNHILECEFYLLELMDCCLIVYHPYRPLLQYVQDMGQEDMLLPLAWRIVNDTYRTDLCLLYPPFMIALACLHVACVVQQKDARQWFAELSVDMEKILEIIRVILKLYEQWKNFDERKEMATILSKMPKPKPPPNSEGEQGPNGSQNSSYSQS | -0.5132
CBX2 (protein, UniProt Q14781 1-532, looked up) Chromobox protein homolog 2: MEELSSVGEQVFAAECILSKRLRKGKLEYLVKWRGWSSKHNSWEPEENILDPRLLLAFQKKEHEKEVQNRKRGKRPRGRPRKLTAMSSCSRRSKLKEPDAPSKSKSSSSSSSSTSSSSSSDEEDDSDLDAKRGPRGRETHPVPQKKAQILVAKPELKDPIRKKRGRKPLPPEQKATRRPVSLAKVLKTARKDLGAPASKLPPPLSAPVAGLAALKAHAKEACGGPSAMATPENLASLMKGMASSPGRGGISWQSSIVHYMNRMTQSQAQAASRLALKAQATNKCGLGLDLKVRTQKGELGMSPPGSKIPKAPSGGAVEQKVGNTGGPPHTHGASRVPAGCPGPQPAPTQELSLQVLDLQSVKNGMPGVGLLARHATATKGVPATNPAPGKGTGSGLIGASGATMPTDTSKSEKLASRAVAPPTPASKRDCVKGSATPSGQESRTAPGEARKAATLPEMSAGEESSSSDSDPDSASPPSTGQNPSVSVQTSQDWKPTRSLIEHVFVTDVTANLITVTVKESPTSVGFFNLRHY | 1.201
ZNF250 (protein, UniProt P15622 1-560, looked up) Zinc finger protein 250: MAAARLLPVPAGPQPLSFQAKLTFEDVAVLLSQDEWDRLCPAQRGLYRNVMMETYGNVVSLGLPGSKPDIISQLERGEDPWVLDRKGAKKSQGLWSDYSDNLKYDHTTACTQQDSLSCPWECETKGESQNTDLSPKPLISEQTVILGKTPLGRIDQENNETKQSFCLSPNSVDHREVQVLSQSMPLTPHQAVPSGERPYMCVECGKCFGRSSHLLQHQRIHTGEKPYVCSVCGKAFSQSSVLSKHRRIHTGEKPYECNECGKAFRVSSDLAQHHKIHTGEKPHECLECRKAFTQLSHLIQHQRIHTGERPYVCPLCGKAFNHSTVLRSHQRVHTGEKPHRCNECGKTFSVKRTLLQHQRIHTGEKPYTCSECGKAFSDRSVLIQHHNVHTGEKPYECSECGKTFSHRSTLMNHERIHTEEKPYACYECGKAFVQHSHLIQHQRVHTGEKPYVCGECGHAFSARRSLIQHERIHTGEKPFQCTECGKAFSLKATLIVHLRTHTGEKPYECNSCGKAFSQYSVLIQHQRIHTGEKPYECGECGRAFNQHGHLIQHQKVHRKL | -1.178
